This note sets out measurements from article PMC7423155, “RCC1L (WBSCR16) isoforms coordinate mitochondrial ribosome assembly through their interaction with GTPases” (PLoS Genetics, 2020).

The target of this assay is T1, STREP2-FLAG-tagged RCC1L^V1 (human, UniProt Q96I51 38-464).
T1 construct: RCC1L (WBSCR16), human, isoform RCC1L^V1, the principal isoform, 464 amino acids as precursor; isoform cDNA expressed in cells and recovered from purified mitochondria; pcDNA5/FRT/TO; carboxy-terminal STREP2 followed by FLAG; also called RCC1L^V1-FLAG; WBSCR16 isoform V1; source: inducible transgenic HEK cell line (doxycycline), in lysate of purified mitochondria; not shown: STREP2, C-terminal, …
Kind of assay: co-IP; STREP2-FLAG-tagged RCC1L isoform as bait, captured on Strep-Tactin Sepharose overnight from trypsin-treated, sucrose gradient-purified HEK mitochondria lysed with 0.8% DDM; 10 washes; elution with 10 mM desthiobiotin; endogenous proteins in the elution found by immunoblot. As to conditions: partners not purified. Background: In western blotting, separated proteins are transferred to a membrane and probed.

T1 sequence (Q96I51 38-464): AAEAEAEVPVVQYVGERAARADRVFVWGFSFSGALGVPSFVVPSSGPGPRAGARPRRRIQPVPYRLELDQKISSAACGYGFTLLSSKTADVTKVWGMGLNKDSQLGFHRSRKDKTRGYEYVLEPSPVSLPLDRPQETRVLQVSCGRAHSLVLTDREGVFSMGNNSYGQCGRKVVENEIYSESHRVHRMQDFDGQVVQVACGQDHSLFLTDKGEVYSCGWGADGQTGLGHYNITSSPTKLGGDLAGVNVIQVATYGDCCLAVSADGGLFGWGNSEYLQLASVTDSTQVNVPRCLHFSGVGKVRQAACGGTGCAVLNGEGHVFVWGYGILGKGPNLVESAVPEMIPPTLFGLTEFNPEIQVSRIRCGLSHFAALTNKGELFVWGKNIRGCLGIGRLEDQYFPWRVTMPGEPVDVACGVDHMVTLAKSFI

B1: GTPBP10 (enzyme, human (endogenous in HEK293T), UniProt A4D1E9 1-387, looked up)
chain: MVHCSCVLFRKYGNFIDKLRLFTRGGSGGMGYPRLGGEGGKGGDVWVVAQNRMTLKQLKDRYPRKRFVAGVGANSKISALKGSKGKDCEIPVPVGISVTDENGKIIGELNKENDRILVAQGGLGGKLLTNFLPLKGQKRIIHLDLKLIADVGLVGFPNAGKSSLLSCVSHAKPAIADYAFTTLKPELGKIMYSDFKQISVADLPGLIEGAHMNKGMGHKFLKHIERTRQLLFVVDISGFQLSSHTQYRTAFETIILLTKELELYKEELQTKPALLAVNKMDLPDAQDKFHELMSQLQNPKDFLHLFEKNMIPERTVEFQHIIPISAVTGEGIEELKNCIRKSLDEQANQENDALHKKQLLNLWISDTMSSTEPPSKHAVTTSKMDII
notes: GTPBP10, mitochondrial GTPase of mtLSU assembly, human; endogenous mitochondrial protein; source: endogenous, lysate of purified HEK mitochondria
With B1, the “fold enrichment in the pull-down over MTG1” value stood at 5 fold and the “fold enrichment in the pull-down over MTG2” value was 4 fold.
